Results on two molecules are retold here after publication PMC5716589, “The nucleoid as a scaffold for the assembly of bacterial signaling complexes” (PLoS Genetics, 2017).

One series addresses T1, FrzCD-(His)6 (Myxococcus xanthus, UniProt P43500 1-417).
T1 sequence: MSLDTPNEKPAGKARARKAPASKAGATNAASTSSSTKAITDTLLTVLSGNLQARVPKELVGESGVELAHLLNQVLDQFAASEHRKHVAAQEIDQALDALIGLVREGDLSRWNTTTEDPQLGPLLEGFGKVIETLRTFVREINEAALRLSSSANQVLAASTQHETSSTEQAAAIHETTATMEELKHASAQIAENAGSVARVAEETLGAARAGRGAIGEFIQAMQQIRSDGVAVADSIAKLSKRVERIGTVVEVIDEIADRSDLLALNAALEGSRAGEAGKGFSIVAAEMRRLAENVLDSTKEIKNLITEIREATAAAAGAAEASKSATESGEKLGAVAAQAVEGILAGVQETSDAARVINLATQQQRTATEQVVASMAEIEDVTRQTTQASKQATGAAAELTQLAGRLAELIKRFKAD
Put plainly: EMSA; 300 nM DNA; EMSA Fig 3: 10 mM Tris-HCl pH 8, 60 mM NaCl, 10% glycerol, 4 C, 40 min; EMSA S4 Fig: 50 mM Tris pH 7.4, 50 mM NaCl, 1 mM DTT, 10% glycerol, 25 C, 20 min; BLI: PBS pH 7.5, 0.001% Tween-20, 25 C (6His-FrzCDΔ1-130 used as reference subtraction). As to conditions: protein: recombinant; tags: C-terminal 6His; chain copies: 2; blunt. Background: In EMSA bound probe runs differently from free probe, usually more slowly.

Series [1] deals with the molecule itself. Put plainly: SEC-MALS; 100 μl of 2 mg/ml (45 μM) FrzCD injected on a BioRad EnRich650 column in 50 mM Tris, 50 mM NaCl, pH 8.0, 0.4 ml/min; Wyatt Dawn Heleos II, Debye model. Background: In gel filtration, larger molecules generally elute earlier.

As usually defined, the stoichiometry N is the number of molecules, sites or subunits per partner or assembly.

B1: Oligo70 (dsDNA)
DNA 1: CTTGCAGTAGAGCTGACCATGATTACGCCATCAGCAGCTCCAGGTCGTACCTCCAGCTACCAATCCCCG
DNA 2: CGGGGATTGGTAGCTGGAGGTACGACCTGGAGCTGCTGATGGCGTAATCATGGTCAGCTCTACTGCAAG
As for B1, the binding result with FrzCD-(His)6 is “binds”.

B2: C-terminal-tagged FrzCD-(His)6 (receptor, Myxococcus xanthus, UniProt P43500 1-417, looked up)
chain: T1 sequence
notes: FrzCD, cytoplasmic chemoreceptor (MCP) of the Frz chemosensory system of Myxococcus xanthus; the names of the deletion mutants (Δ131–417) imply 417 residues; also called FrzCD-H6; 6His-FrzCD (as called in the results for this experiment); source: E. coli BL21-AI, purified (HisTrap FF, MonoQ ion exchange)
For B2, in series [1], the “stoichiometry N” value was determined as 2.
